Reference: publication PMC11375168 (Nature Communications, 2024)

Target: the molecule itself
Test: cryo-EM structure

B1: Mycobacterium tuberculosis EfpA (MtEfpA), full length, with C-terminal GFP and Strep-Tag II (natural protein)
chain: MTALNDTERAVRNWTAGRPHRPAPMRPPRSEETASERPSRYYPTWLPSRSFIAAVIAIGGMQLLATMDSTVAIVALPKIQNELSLSDAGRSWVITAYVLTFGGLMLLGGRLGDTIGRKRTFIVGVALFTISSVLCAVAWDEATLVIARLSQGVGSAIASPTGLALVATTFPKGPARNAATAVFAAMTAIGSVMGLVVGGALTEVSWRWAFLVNVPIGLVMIYLARTALRETNKERMKLDATGAILATLACTAAVFAFSIGPEKGWMSGITIGSGLVALAAAVAFVIVERTAENPVVPFHLFRDRNRLVTFSAILLAGGVMFSLTVCIGLYVQDILGYSALRAGVGFIPFVIAMGIGLGVSSQLVSRFSPRVLTIGGGYLLFGAMLYGSFFMHRGVPYFPNLVMPIVVGGIGIGMAVVPLTLSAIAGVGFDQIGPVSAIALMLQSLGGPLVLAVIQAVITSRTLYLGGTTGPVKFMNDVQLAALDHAYTYGLLWVAGAAIIVGGMALFIGYTPQQVAHAQEVKEAIDAGEL
stoichiometry N: 2
